# Article PMC3996161
# Target: DraIII restriction endonuclease (Deinococcus radiophilus ATCC 27603)
# Assay: crystal structure; DraIII incubated 1:1 with an 11-bp phosphorothioate canonical DNA duplex, SEC with 5 mmol/L MgCl2; crystals at 18°C, hanging drop, 0.1 mol/L Tris-Cl, 20% 2-propanol, 5% PEG 8000, pH 8.0; the DNA was not observed in the structure
substance,measurement,value
DraIII restriction endonuclease (enzyme),stoichiometry N,2
